Sequences and labels used below:
B1: apo S134N SOD1 in the AS-SOD1 (C6A/C111S) background (enzyme)
chain: not shown
notes: human Cu,Zn superoxide dismutase (SOD1), 153-residue subunit; Apo (metal-free) form with the intra-subunit C57-C146 disulfide bond intact; source: BL21-Gold(DE3) PLysS cells, purified (anion exchange QSepharose XL and/or gel filtration Sephacryl 200HR)
B2: apo L38V SOD1 in the AS-SOD1 (C6A/C111S) background (enzyme)
chain: not shown
notes: as for B1
B3: apo-AS-SOD1 (human Cu,Zn superoxide dismutase, C6A/C111S pseudo-wild-type background, metal-free) (enzyme)
chain: not shown
notes: human Cu,Zn superoxide dismutase (SOD1), 153-residue subunit; Apo (metal-free) form with the intra-subunit C57-C146 disulfide bond intact; also called WT; WT SOD1; source: BL21-Gold(DE3) PLysS cells, purified (anion exchange QSepharose XL and/or gel filtration Sephacryl 200HR)
B4: apo L106V SOD1 in the AS-SOD1 (C6A/C111S) background (enzyme)
chain: not shown
notes: as for B1
B5: apo A4V SOD1 in the AS-SOD1 (C6A/C111S) background (enzyme)
chain: not shown
notes: as for B1

The data set deals with the molecule itself. Description: global analysis of urea unfolding and refolding kinetics (manual-mixing far-UV CD at 230 nm); kinetic traces at 0.25 to 8.75 M urea and 1 to 40 µM protein fit together to 2U = 2M = N2; constants in the absence of urea; step: dimer (N2) to folded monomers (2M); monomer unfolding rate fixed to that of the stable monomeric variants; apo protein; 10 mM potassium phosphate, 1 mM K2EDTA, pH 7.2, 20°C.
Regarding B1, the Kd was 1.1 nM, the koff is 0.000222 s⁻¹ and the kon was 200000 M⁻¹ s⁻¹.

In turn, B2 gave a Kd of 4.6 nM, a koff of 0.000557 s⁻¹ and a kon of 120000 M⁻¹ s⁻¹.

For the protein B3, the Kd amounted to 0.87 nM, the koff was 0.000745 s⁻¹ and the kon came out at 860000 M⁻¹ s⁻¹.

For B4, the Kd turned out to be 21 nM, the koff was found to be 0.00151 s⁻¹ and the kon was 73000 M⁻¹ s⁻¹.

B5 registered a Kd of 123 nM, a koff of 0.0223 s⁻¹ and an on-rate (kon) of 180000 M⁻¹ s⁻¹.

(Values after article PMC2852398, “Metal-Free ALS Variants of Dimeric Human Cu,Zn-Superoxide Dismutase Have Enhanced Populations of Monomeric Species” (PLoS ONE, 2010).)
